From patent US20250255960A1 (HRAIN BIOTECHNOLOGY, published 2025)
Where a chain is given by its changes, count along the chain named.

Experiments:
[1] = biological target: T1, Fc-labeled CD70 antigen; assay: flow cytometry: CAR-transduced T cells stained with Fc-labeled CD70 antigen (1:100) and secondary antibody PE-Fc; NT control 0.61
T1 construct: soluble antigen used at 1:100 to stain CAR-T cells; also called detected with the secondary antibody PE-Fc (axis label PE-Fc)
T1 sequence (P32970 whole entry, species assumed, looked up): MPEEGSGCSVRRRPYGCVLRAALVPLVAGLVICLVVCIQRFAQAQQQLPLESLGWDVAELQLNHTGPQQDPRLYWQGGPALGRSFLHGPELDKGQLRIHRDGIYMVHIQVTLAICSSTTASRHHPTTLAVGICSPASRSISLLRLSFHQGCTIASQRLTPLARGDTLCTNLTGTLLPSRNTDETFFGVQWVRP
Protocol: The CAR positive rate of the retrovirus-infected T lymphocytes were detected 72 hours after virus infection. For the chimeric antigen receptor group containing CD70-2A5-BBz, CD70-5C10-BBz, CD70-8A6-BBz, CD70-8B4-BBz, CD70-8E1-BBz, CD70-8F9-BBz, CD70-9D8-BBz, CD70-11C9-BBz and ARGX-BBz clone and the negative uninfected control group NT, 1×10⁶ cells from the above two groups respectively, were taken and centrifuged to remove the medium, the cells were washed once with PBS, and resuspended in 100 μL of the flow loading tube (BD). Fc-labeled CD70 antigen (1:100) was added and incubated for 30 minutes at 4° C. After washing the cells once with PBS, the secondary antibody PE-Fc was added according to the recommended ratio and incubated for 30 minutes in the dark. After the cells were washed once with PBS, the cells were resuspended in 200 μL of PBS and tested on the machine. The results of flow cytometric analysis of CAR-T positive rate are shown by FIG. 11.

[2] = biological target: T1, Fc-labeled CD70 antigen; assay: flow cytometry: CAR-transduced T cells stained with Fc-labeled CD70 antigen (1:100) and secondary antibody PE-Fc; NT control 0.79
Protocol: The CAR positive rate of the retrovirus-infected T lymphocytes was detected 72 hours after virus infection. For the chimeric antigen receptor group containing CD70-2A5-BBz, CD70-8B4-BBz, CD70-9D8-BBz, CD70-11C9-BBz and ARGX-BBz clones and the negative uninfected control NT, 1×10⁶ cells from the above two groups respectively, were taken and centrifuged to remove the medium, washed once with PBS, and resuspended in 100 μL in a flow loading tube (BD). Fc-labeled CD70 antigen (1:100) was added and incubated for 30 minutes at 4° C. After washing the cells once with PBS, the secondary antibody PE-Fc was added according to the recommended ratio and incubated for 30 minutes in the dark. After the cells were washed once with PBS, the cells were resuspended in 200 μL of PBS and tested on the machine. The results of flow cytometric analysis of CAR-T positive rate are shown by FIG. 16.

[3] = biological target: T2, recombinant human CD27-his protein (human, UniProt P26842 21-192, limits assumed); assay: ELISA; CD70-alFc coated in 4-fold dilution from 100 ng, 0.1 ug/mL CD27-his in solution, HRP anti-his-tag detection; coated CD70-alFc titrated, CD27-his fixed at 0.1 µg/mL
T2 construct: Bought; also called commercial CD27; recombinant human CD27 protein; not shown: his tag
T2 sequence (looked up): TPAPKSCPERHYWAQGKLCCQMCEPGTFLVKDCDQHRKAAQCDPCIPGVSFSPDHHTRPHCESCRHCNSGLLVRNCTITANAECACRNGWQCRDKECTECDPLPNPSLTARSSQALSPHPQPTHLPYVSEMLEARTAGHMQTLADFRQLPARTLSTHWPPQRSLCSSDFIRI
Protocol: ELISA activity identification of recombinant human CD70-alFc protein with commercial CD27: recombinant human CD70-alFc protein was coated in a 4-fold gradient dilution package in an ELISA plate, the first well was coated with 100 ng, and sequentially diluted 4-fold (100 uL/well), incubated at 4° C. overnight, washed 3 times with 200 uL PBST the next day, and blocked with 1% BSA/PBS for 1 hour. The blocking solution was removed, 100 μL 0.1 μg/mL recombinant human CD27-his protein was added to each well, and incubated at 37° C. for 1 hour. After washing 3 times with 200 μL PBST, horseradish peroxidase-labeled rabbit anti-his-tag antibody (100 μL per well) diluted 1:4000 was added, and incubated at 37° C. for 1 hour. After washing 3 times with 200 μL PBST, 100 μL TMB chromogen solution was added for development at 37° C. for 10 minutes, 100 μL 1M hydrochloric acid was added to stop the reaction, and the absorbance value at OD₄₅₀ was obtained. The analysis results are shown by FIG. 2 and Table 1.

[4] = biological target: T3, CD70-2A5 VHH-huIgG1-Fc (human, UniProt P01857-1 104-330 = IgG part, limits assumed); assay: BLI (Octet K2); biotinylated CD70 on SA probe, VHH-huFc as analyte at 200, 100, 50, 25 nM
T3 construct: domain: IgG1-Fc; Recombinant VHH-huIgG1-Fc made in 293F cells; also called VHH-huFc antibody CD70-2A5
Protocol: (§1) The affinity of four VHH-huFc antibodies CD70-2A5, CD70-8B4, CD70-9D8, and CD70-11C9 to human CD70 was analyzed by Octet K2 molecular interaction analyzer. The SA probe was immobilized with 200 μL 100 nM biotinylated recombinant human CD70 protein at a height of […]. […] The results are shown by FIG. 8 and Table 4.

[5] = biological target: T4, CD70-11C9 VHH-huIgG1-Fc (human, UniProt P01857-1 104-330 = IgG part); assay: as above
T4 construct: domain: IgG1-Fc; Recombinant VHH-huIgG1-Fc made in 293F cells; also called VHH-huFc antibody CD70-11C9
Protocol: as §1

[6] = biological target: T5, CD70-9D8 VHH-huIgG1-Fc (human, UniProt P01857-1 104-330 = IgG part, limits assumed); assay: as above
T5 construct: domain: IgG1-Fc; Recombinant VHH-huIgG1-Fc made in 293F cells; also called VHH-huFc antibody CD70-9D8
Protocol: as §1

[7] = biological target: T6, CD70-8B4 VHH-huIgG1-Fc (human, UniProt P01857-1 104-330 = IgG part, limits assumed); assay: as above
T6 construct: domain: IgG1-Fc; Recombinant VHH-huIgG1-Fc made in 293F cells; also called VHH-huFc antibody CD70-8B4
Protocol: as §1

B1: 2A5-BBz (other)
chimeric antigen receptor chain: EVQLVESGGGLVQAGGSLRLSCAASGSIFSINAMGWYRQAPGKQRELVAAITSGGSTNYADSVKGRFTISRDNAKNTVYLQMNSLKPEDTAVYYCNAGAGRAFPGDYWGQGTQVTVSSTTTPAPRPPTPAPTIASQPLSLRPEACRPAAGGAVHTRGLDFACDIYIWAPLAGTCGVLLLSLVITLYCRFSVVKRGRKKLLYIFKQPFMRPVQTTQEEDGCSCRFPEEEEGGCELRVKFSRSADAPAYQQGQNQLYNELNLGRREEYDVLDKRRGRDPEMGGKPRRKNPQEGLYNELQKDKMAEAYSEIGMKGERRRGKGHDGLYQGLSTATKDTYDALHMQALPPR
notes: also called CD70-2A5-BBz
[1]
  CD70 CAR+ (positive rate of the cells): 75.8%
[2]
  CD70 CAR+ (positive rate of the cells): 82.4%

B2: 5C10-BBz (other)
chimeric antigen receptor chain: B1 chimeric antigen receptor chain with E1Q, I31M, A60V
notes: also called CD70-5C10-BBz
[1]
  CD70 CAR+ (positive rate of the cells): 60%

B3: 8B4-BBz (other)
chimeric antigen receptor chain: EVQLVESGGGFVQPGGSLRLSCAASGFTLDGYAVAWFRQAPGKEREGVSCISSSDGSTYYIDSVQGRFTITRNNAKNTVYLQMNSLKPEDTAVYYCTTDVLTSCRSDRWLEVWGQGTLVTVSSTTTPAPRPPTPAPTIASQPLSLRPEACRPAAGGAVHTRGLDFACDIYIWAPLAGTCGVLLLSLVITLYCRFSVVKRGRKKLLYIFKQPFMRPVQTTQEEDGCSCRFPEEEEGGCELRVKFSRSADAPAYQQGQNQLYNELNLGRREEYDVLDKRRGRDPEMGGKPRRKNPQEGLYNELQKDKMAEAYSEIGMKGERRRGKGHDGLYQGLSTATKDTYDALHMQALPPR
notes: also called CD70-8B4-BBz
[1]
  CD70 CAR+ (positive rate of the cells): 72.1%
[2]
  CD70 CAR+ (positive rate of the cells): 78.3%

B4: 8F9-BBz (other)
chimeric antigen receptor chain: QLQLVESGGGLVQAGGSLRLSCAVSGRTSSTYAMAWFRQAPGKEREIVAVIGWSGGRTAYADSVKGRFTIAKDNAKNTVSLQMNSLKPEDTGVYYCAADSEQSSSSEGQAYGYEDWGQGTLVTVSSTTTPAPRPPTPAPTIASQPLSLRPEACRPAAGGAVHTRGLDFACDIYIWAPLAGTCGVLLLSLVITLYCRFSVVKRGRKKLLYIFKQPFMRPVQTTQEEDGCSCRFPEEEEGGCELRVKFSRSADAPAYQQGQNQLYNELNLGRREEYDVLDKRRGRDPEMGGKPRRKNPQEGLYNELQKDKMAEAYSEIGMKGERRRGKGHDGLYQGLSTATKDTYDALHMQALPPR
notes: also called CD70-8F9-BBz
[1]
  CD70 CAR+ (positive rate of the cells): 72.7%

B5: 9D8-BBz (other)
chimeric antigen receptor chain: QLQLVESGGGLVQPGGSLRLSCAVSGRTSSTYAMAWFRQAPGKEREIVAVITWSGGRTAYADSVKGRFTIAKDSAKNTVYLQMNSLKPEDTAVYYCAADSEVSSSSEGQYGYESWGQGTQVTVSSTTTPAPRPPTPAPTIASQPLSLRPEACRPAAGGAVHTRGLDFACDIYIWAPLAGTCGVLLLSLVITLYCRFSVVKRGRKKLLYIFKQPFMRPVQTTQEEDGCSCRFPEEEEGGCELRVKFSRSADAPAYQQGQNQLYNELNLGRREEYDVLDKRRGRDPEMGGKPRRKNPQEGLYNELQKDKMAEAYSEIGMKGERRRGKGHDGLYQGLSTATKDTYDALHMQALPPR
notes: also called CD70-9D8-BBz
[1]
  CD70 CAR+ (positive rate of the cells): 74.1%
[2]
  CD70 CAR+ (positive rate of the cells): 83%

B6: 11C9-BBz (other)
chimeric antigen receptor chain: QVQLVESGGGLVQPGGSLRLSCAASGFTLDYYAVGWFRQAPGKEREGVSCISSSSDGSTYYVDSVLGRFTISRNNAENTVYLQMNSLKPEDTAVYYCSTDVLTSCRSDRYLEVWGQGTLVTVSGTTTPAPRPPTPAPTIASQPLSLRPEACRPAAGGAVHTRGLDFACDIYIWAPLAGTCGVLLLSLVITLYCRFSVVKRGRKKLLYIFKQPFMRPVQTTQEEDGCSCRFPEEEEGGCELRVKFSRSADAPAYQQGQNQLYNELNLGRREEYDVLDKRRGRDPEMGGKPRRKNPQEGLYNELQKDKMAEAYSEIGMKGERRRGKGHDGLYQGLSTATKDTYDALHMQALPPR
notes: also called CD70-11C9-BBz
[1]
  CD70 CAR+ (positive rate of the cells): 51.3%
[2]
  CD70 CAR+ (positive rate of the cells): 70.9%

B7: recombinant human CD70-alFc protein (Fc fusion)
chain: QRFAQAQQQLPLESLGWDVAELQLNHTGPQQDPRLYWQGGPALGRSFLHGPELDKGQLRIHRDGIYMVHIQVTLAICSSTTASRHHPTTLAVGICSPASRSISLLRLSFHQGCTIASQRLTPLARGDTLCTNLTGTLLPSRNTDETFFGVQWVRPELKTPQPQSQPECRCPKCPAPELLGGPSVFIFPPKPKDVLSISGRPEVTCVVVDVGQEDPEVSFNWYIDGAEVRTANTKPKEEQFNSTYRVVSVLPIRHQDWLTGKEFKCKVNNKALPAPIERTISKAKGQTREPQVYALAPHREELAKDTVSVTCLVKDFYPVDINIEWQRNGQPESEGTYATTPPQLDNDGTYFLYSKLSVGKNTWQRGETFTCVVMHEALPNHYTQKSITQSSGK
notes: range 39-193; Made in 293T cells; also called CD70-alIgG1Fc fusion protein; recombinant human CD70 protein
[3]
  EC50: 8.69 ng/mL

B8: biotinylated recombinant human CD70 protein (ligand, UniProt P32970 39-193, looked up)
chain: QRFAQAQQQLPLESLGWDVAELQLNHTGPQQDPRLYWQGGPALGRSFLHGPELDKGQLRIHRDGIYMVHIQVTLAICSSTTASRHHPTTLAVGICSPASRSISLLRLSFHQGCTIASQRLTPLARGDTLCTNLTGTLLPSRNTDETFFGVQWVRP
modifications: biotin on the avi-tag
notes: also called biotinylated CD70 protein; biotinylated CD70 recombinant protein; not shown: avi-tag (and any other tag or Fc)
[4]
  Kd: < 1 pM
  koff: < 1e-07 s⁻¹
  kon: 36700 M⁻¹ s⁻¹
[5]
  Kd: < 1 pM
  koff: < 1e-07 s⁻¹
  kon: 264000 M⁻¹ s⁻¹
[6]
  Kd: 1830 pM
  koff: 0.000235 s⁻¹
  kon: 129000 M⁻¹ s⁻¹
[7]
  Kd: < 1 pM
  koff: < 1e-07 s⁻¹
  kon: 45500 M⁻¹ s⁻¹
